B1: Proto-oncogene vav, residues 782 to 842; numbered along this chain, P15498 (parent)
chain: KYFGTAKARYDFCARDRSELSLKEGDIIKILNKKGQQGWWRGEIYGRVGWFPANYVEEDYS

± gives the uncertainty stated by the source.

The series covers variants of B1. Briefly: abundance fitness (aPCA) (normalised: wild type 0, dead -1); higher = more abundant; growth selection in yeast, the domain comes from the species named. The following applies: Homo sapiens.
KYFGTAIARYDFCARDRSELSLKEGDIIKILNKKGQQGWWRGEIYGRVGWFPANYVEEDYS [K7I]: the abundance fitness was -0.232 ± 0.17. Take KYFGTAKARYDFCARDRSELSLKEGDIWKILNKKGQQGWWRGEIYGRVGWFPANYVEEDYS [I28W]: the abundance fitness was -0.591 ± 0.13. To KYFGTAKARYDFCARDRSELSLKEGDIIKILNKKGQQGWWRLEIYGRVGWFPANYVEEDYS [G42L] belongs -0.788 ± 0.11; to KYFGTAKARYDFCARDRSELSLKEGDIIKILNKKGQQGWWRQEIYGRVGWFPANYVEEDYS [G42Q], -0.963 ± 0.35; to KYFGTAKARYDFCARDRSELSLKEGDIIKILNKKGQQGIWRGEIYGRVGWFPANYVEEDYS [W39I], -0.408 ± 0.098. The figure for KYFGTAKARYDFCARDRSEISLKEGDIIKILNKKGQQGWWRGEIYGRVGWFPANYVEEDYS [L20I] is -0.342 ± 0.21; for KYFGTAKIRYDFCARDRSELSLKEGDIIKILNKKGQQGWWRGEIYGRVGWFPANYVEEDYS [A8I] it is -0.535 ± 0.23; for KYFGTAKARYDFCARDRSELSLKEGDIIKILNKKGQQGWWQGEIYGRVGWFPANYVEEDYS [R41Q] it is 0.129 ± 0.073. For the variant KYFPTAKARYDFCARDRSELSLKEGDIIKILNKKGQQGWWRGEIYGRVGWFPANYVEEDYS [G4P], the abundance fitness was determined as 0.011 ± 0.099. For the variant KYFSTAKARYDFCARDRSELSLKEGDIIKILNKKGQQGWWRGEIYGRVGWFPANYVEEDYS [G4S], the abundance fitness is -0.111 ± 0.058. The figure for KYFQTAKARYDFCARDRSELSLKEGDIIKILNKKGQQGWWRGEIYGRVGWFPANYVEEDYS [G4Q] is -0.151 ± 0.12. To KYFLTAKARYDFCARDRSELSLKEGDIIKILNKKGQQGWWRGEIYGRVGWFPANYVEEDYS [G4L] belongs -0.247 ± 0.071; to KYFGTAKARYDFCARDRSALSLKEGDIIKILNKKGQQGWWRGEIYGRVGWFPANYVEEDYS [E19A], -1 ± 0.34. With KYFGTAKARYDFCARYRSELSLKEGDIIKILNKKGQQGWWRGEIYGRVGWFPANYVEEDYS [D16Y], the abundance fitness was -0.445 ± 0.13. On to KYFGTAKARYDFCARDRSELSLIEGDIIKILNKKGQQGWWRGEIYGRVGWFPANYVEEDYS [K23I], for which the abundance fitness was -0.524 ± 0.19. The figure for KYFGTAKARYDFCARDRSELSLKEGDIIKILNKKGQQGWWRGEIDGRVGWFPANYVEEDYS [Y45D] is 0.147 ± 0.079; for KYFGTAKARYDFCARDRSELSLKEGDIIKILNKKGQQGWWRGEIYGRVGWFPANYVETDYS [E58T] it is -0.129 ± 0.093. To KYFGTAKARYDFCARDRSELSLKEGDIIKILNKKGQQGWWRGEIYGRVGWFPANYVEYDYS [E58Y] belongs -0.065 ± 0.14; to KYFGTAKARYDFCARDRSELSLKEGDIIKILNKKGQQGWWRGEIYGRVGWFPANYVENDYS [E58N], -0.6 ± 0.38; to KYFGTAKARYDFCARDRSELSLKEGDIIKILNKKGQQGWWRGEIYGRCGWFPANYVEEDYS [V48C], -0.194 ± 0.074. The figure for KYFGTAKARYDFCARDRSELSLKEGDIIKILNKKGQQGWWRGEIYGRMGWFPANYVEEDYS [V48M] is -0.312 ± 0.1.

Consider KYFGTAKARYDFCARDRSELSLKEGDIIKILNKKGQQGWWRGEIYGRVAWFPANYVEEDYS [G49A], for which the abundance fitness is -0.433 ± 0.2.

In the case of KYFGTAKARYDFCARDRSELSLKEGDIIKILNKKGQQGWWRGEIYGRVFWFPANYVEEDYS [G49F], the abundance fitness is -0.87 ± 0.26. Regarding KNFGTAKARYDFCARDRSELSLKEGDIIKILNKKGQQGWWRGEIYGRVGWFPANYVEEDYS [Y2N], the abundance fitness was determined as 0.228 ± 0.19. On to KEFGTAKARYDFCARDRSELSLKEGDIIKILNKKGQQGWWRGEIYGRVGWFPANYVEEDYS [Y2E], for which the abundance fitness is -0.238 ± 0.18. The figure for KVFGTAKARYDFCARDRSELSLKEGDIIKILNKKGQQGWWRGEIYGRVGWFPANYVEEDYS [Y2V] is -0.247 ± 0.087; for KWFGTAKARYDFCARDRSELSLKEGDIIKILNKKGQQGWWRGEIYGRVGWFPANYVEEDYS [Y2W] it is -0.36 ± 0.12. The figure for KHFGTAKARYDFCARDRSELSLKEGDIIKILNKKGQQGWWRGEIYGRVGWFPANYVEEDYS [Y2H] is -0.138 ± 0.1; for KYFGTAKARYDFCARDRSELSLKEGDIIWILNKKGQQGWWRGEIYGRVGWFPANYVEEDYS [K29W] it is -0.4 ± 0.1; for KYFGTAKARYDFCARDRSELSLKMGDIIKILNKKGQQGWWRGEIYGRVGWFPANYVEEDYS [E24M] it is -0.009 ± 0.094. In the case of KYFGTAKARYDFCARDRSELSLKIGDIIKILNKKGQQGWWRGEIYGRVGWFPANYVEEDYS [E24I], the abundance fitness was -0.124 ± 0.066. As for KYFGTAKARYDFCARDRSELSLKHGDIIKILNKKGQQGWWRGEIYGRVGWFPANYVEEDYS [E24H], the abundance fitness is -0.13 ± 0.098. The figure for KYFGTAKARYDFCARDRSELSLKLGDIIKILNKKGQQGWWRGEIYGRVGWFPANYVEEDYS [E24L] is -0.809 ± 0.13.

For the variant KYFGTAKARYDFCARDRSELSLKEGDIIKILNKTGQQGWWRGEIYGRVGWFPANYVEEDYS [K34T], the abundance fitness is -0.158 ± 0.094.

In the case of KYFGTAKARYDFCARDRSELSLKEGDIIKILNKLGQQGWWRGEIYGRVGWFPANYVEEDYS [K34L], the abundance fitness is -0.268 ± 0.065. The figure for KYFGTAKARYDFCARDRSELSLKEGDIIKILNKRGQQGWWRGEIYGRVGWFPANYVEEDYS [K34R] is 0.019 ± 0.043; for KYFGTAKARYDFCARDRSELSLKEGDIIKILNKKGQQGWWRGEIYGRVGWFPANYVEEHYS [D59H] it is -0.109 ± 0.11; for KYFGTAKARMDFCARDRSELSLKEGDIIKILNKKGQQGWWRGEIYGRVGWFPANYVEEDYS [Y10M] it is 0.098 ± 0.11.

Regarding KYFGTAKARPDFCARDRSELSLKEGDIIKILNKKGQQGWWRGEIYGRVGWFPANYVEEDYS [Y10P], the abundance fitness is -0.847 ± 0.18. To KYFGTAKARLDFCARDRSELSLKEGDIIKILNKKGQQGWWRGEIYGRVGWFPANYVEEDYS [Y10L] belongs -0.122 ± 0.07. Regarding KYFGTAKARNDFCARDRSELSLKEGDIIKILNKKGQQGWWRGEIYGRVGWFPANYVEEDYS [Y10N], the abundance fitness is -0.393 ± 0.24. The figure for KYFGTAKARADFCARDRSELSLKEGDIIKILNKKGQQGWWRGEIYGRVGWFPANYVEEDYS [Y10A] is 0.029 ± 0.064; for KYFGTAKARYDFCNRDRSELSLKEGDIIKILNKKGQQGWWRGEIYGRVGWFPANYVEEDYS [A14N] it is -0.742 ± 0.34.

Source of the values: the Human Domainome abundance scans (Beltran et al. 2025).
